Data published in paper PMC7559292 (Science (New York, N.Y.), 2020).
“And” between values parts separate entries of the source, which are not always exact repeats. Equal values may be shown once.

B1: human CTC1-STN1-TEN1 (CST) complex, purified recombinant heterotrimer (complex)
chain 1: AAGRAQVPSSEQAWLEDAQVFIQKTLCPAVKEPNVQLTPLVIDCVKTVWLSQGRNQGSTLPLSYSFVSVQDLKTHQRLPCCSHLSWSSSAYQAWAQEAGPNGNPLPREQLLLLGTLTDLSADLEQECRNGSLYVRDNTGVLSCELIDLDLSWLGHLFLFPRWSYLPPARWNSSGEGHLELWDAPVPVFPLTISPGPVTPIPVLYPESASCLLRLRNKLRGVQRNLAGSLVRLSALVKSKQKAYFILSLGRSHPAVTHVSIIVQVPAQLVWHRALRPGTAYVLTELRVSKIRGQRQHVWMTSQSSRLLLLKPECVQELELELEGPLLEADPKPLPMPSNSEDKKDPESLVRYSRLLSYSGAVTGVLNEPAGLYELDGQLGLCLAYQQFRGLRRVMRPGVCLQLQDVHLLQSVGGGTRRPVLAPCLRGAVLLQSFSRQKPGAHSSRQAYGASLYEQLVWERQLGLPLYLWATKALEELACKLCPHVLRHHQFLQHSSPGSPSLGLQLLAPTLDLLAPPGSPVRNAHNEILEEPHHCPLQKYTRLQTPSSFPTLATLKEEGQRKAWASFDPKALLPLPEASYLPSCQLNRRLAWSWLCLLPSAFCPAQVLLGVLVASSHKGCLQLRDQSGSLPCLLLAKHSQPLSDPRLIGCLVRAERFQLIVERDVRSSFPSWKELSMPGFIQKQQARVYVQFFLADALILPVPRPCLHSATPSTPQTDPTGPEGPHLGQSRLFLLCHKEALMKRNFCVPPGASPEVPKPALSFYVLGSWLGGTQRKEGTGWGLPEPQGNDDNDQKVHLIFFGSSVRWFEFLHPGQVYRLIAPGPATPMLFEKDGSSCISRRPLELAGCASCLTVQDNWTLELESSQDIQDVLDANKSLPESSLTDLLSDNFTDSLVSFSAEILSRTLCEPLVASLWMKLGNTGAMRRCVKLTVALETAECEFPPHLDVYIEDPHLPPSLGLLPGARVHFSQLEKRVSRSHNVYCCFRSSTYVQVLSFPPETTISIPLPHIYLAELLQGGQSPFQATASCHIVSVFSLQLFWVCAYCTSICRQGKCTRLGSTCPTQTAISQAIIRLLVEDGTAEAVVTCRNHHVAAALGLCPREWASLLDFVQVPGRVVLQFAGPGAQLESSARVDEPMTMFLWTLCTSPSVLRPIVLSFELERKPSKIVPLEPPRLQRFQCGELPFLTHVNPRLRLSCLSIRESEYSSSLGILASSC
chain 2: QPGSSRCEEETPSLLWGLDPVFLAFAKLYIRDILDMKESRQVPGVFLYNGHPIKQVDVLGTVIGVRERDAFYSYGVDDSTGVINCICWKKLNTESVSAAPSAARELSLTSQLKKLQETIEQKTKIEIGDTIRVRGSIRTYREEREIHATTYYKVDDPVWNIQIARMLELPTIYRKVYDQPFHSSALEKEEALSNPGALDLPSLTSLLSEKAKEFLMENRVQSFYQQELEMVESLLSLANQPVIHSASSDQVNFKKDTTSKAIHSIFKNAIQLLQEKGLVFQKDDGFDNLYYVTREDKDLHRKIHRIIQQDCQKPNHMEKGCHFLHILACARLSIRPGLSEAVLQQVLELLEDQSDIVSTMEHYYTAF
chain 3: LPKPGTYYLPWEVSAGQVPDGSTLRTFGRLCLYDMIQSRVTLMAQHGSDQHQVLVCTKLVEPFHAQVGSLYIVLGELQHQQDRGSVVKARVLTCVEGMNLPLLEQAIREQRLYKQERGGSQ
B2: TEN1 (subunit of purified recombinant human CST) (natural protein)
chain: MLPKPGTYYLPWEVSAGQVPDGSTLRTFGRLCLYDMIQSRVTLMAQHGSDQHQVLVCTKLVEPFHAQVGSLYIVLGELQHQQDRGSVVKARVLTCVEGMNLPLLEQAIREQRLYKQERGGSQ
B3: STN1 (subunit of purified recombinant human CST) (natural protein, UniProt Q9H668 1-368, looked up)
chain: MQPGSSRCEEETPSLLWGLDPVFLAFAKLYIRDILDMKESRQVPGVFLYNGHPIKQVDVLGTVIGVRERDAFYSYGVDDSTGVINCICWKKLNTESVSAAPSAARELSLTSQLKKLQETIEQKTKIEIGDTIRVRGSIRTYREEREIHATTYYKVDDPVWNIQIARMLELPTIYRKVYDQPFHSSALEKEEALSNPGALDLPSLTSLLSEKAKEFLMENRVQSFYQQELEMVESLLSLANQPVIHSASSDQVNFKKDTTSKAIHSIFKNAIQLLQEKGLVFQKDDGFDNLYYVTREDKDLHRKIHRIIQQDCQKPNHMEKGCHFLHILACARLSIRPGLSEAVLQQVLELLEDQSDIVSTMEHYYTAF
B4: CTC1 (subunit of purified recombinant human CST) (natural protein, UniProt Q2NKJ3 1-1217, looked up)
chain: MAAGRAQVPSSEQAWLEDAQVFIQKTLCPAVKEPNVQLTPLVIDCVKTVWLSQGRNQGSTLPLSYSFVSVQDLKTHQRLPCCSHLSWSSSAYQAWAQEAGPNGNPLPREQLLLLGTLTDLSADLEQECRNGSLYVRDNTGVLSCELIDLDLSWLGHLFLFPRWSYLPPARWNSSGEGHLELWDAPVPVFPLTISPGPVTPIPVLYPESASCLLRLRNKLRGVQRNLAGSLVRLSALVKSKQKAYFILSLGRSHPAVTHVSIIVQVPAQLVWHRALRPGTAYVLTELRVSKIRGQRQHVWMTSQSSRLLLLKPECVQELELELEGPLLEADPKPLPMPSNSEDKKDPESLVRYSRLLSYSGAVTGVLNEPAGLYELDGQLGLCLAYQQFRGLRRVMRPGVCLQLQDVHLLQSVGGGTRRPVLAPCLRGAVLLQSFSRQKPGAHSSRQAYGASLYEQLVWERQLGLPLYLWATKALEELACKLCPHVLRHHQFLQHSSPGSPSLGLQLLAPTLDLLAPPGSPVRNAHNEILEEPHHCPLQKYTRLQTPSSFPTLATLKEEGQRKAWASFDPKALLPLPEASYLPSCQLNRRLAWSWLCLLPSAFCPAQVLLGVLVASSHKGCLQLRDQSGSLPCLLLAKHSQPLSDPRLIGCLVRAERFQLIVERDVRSSFPSWKELSMPGFIQKQQARVYVQFFLADALILPVPRPCLHSATPSTPQTDPTGPEGPHLGQSRLFLLCHKEALMKRNFCVPPGASPEVPKPALSFYVLGSWLGGTQRKEGTGWGLPEPQGNDDNDQKVHLIFFGSSVRWFEFLHPGQVYRLIAPGPATPMLFEKDGSSCISRRPLELAGCASCLTVQDNWTLELESSQDIQDVLDANKSLPESSLTDLLSDNFTDSLVSFSAEILSRTLCEPLVASLWMKLGNTGAMRRCVKLTVALETAECEFPPHLDVYIEDPHLPPSLGLLPGARVHFSQLEKRVSRSHNVYCCFRSSTYVQVLSFPPETTISIPLPHIYLAELLQGGQSPFQATASCHIVSVFSLQLFWVCAYCTSICRQGKCTRLGSTCPTQTAISQAIIRLLVEDGTAEAVVTCRNHHVAAALGLCPREWASLLDFVQVPGRVVLQFAGPGAQLESSARVDEPMTMFLWTLCTSPSVLRPIVLSFELERKPSKIVPLEPPRLQRFQCGELPFLTHVNPRLRLSCLSIRESEYSSSLGILASSC

Tests used:
negative-stain EM = molecular target: the molecule itself; assay: negative-stain EM
[1] = molecular target: B4; assay: cryo-EM structure
[2] = molecular target: B3; assay: cryo-EM structure
cryo-EM structure = molecular target: the molecule itself; assay: cryo-EM structure

B1
stoichiometry N (negative-stain EM): 4 and 2

B2
binding result [1]: binds
stoichiometry N [2]: 1

B3
stoichiometry N [1]: 1

B4
binding result (cryo-EM structure): binds
